Broadly, the Kd is a measure of binding affinity in units of concentration.

Drawing on patent publication US20210000909A1, this text covers Kd for one substance.

For this assay, the target named is PDZ1/2 domain (UniProt P78352).
Sequence of PDZ1/2 domain (P78352 61-249 limits assumed): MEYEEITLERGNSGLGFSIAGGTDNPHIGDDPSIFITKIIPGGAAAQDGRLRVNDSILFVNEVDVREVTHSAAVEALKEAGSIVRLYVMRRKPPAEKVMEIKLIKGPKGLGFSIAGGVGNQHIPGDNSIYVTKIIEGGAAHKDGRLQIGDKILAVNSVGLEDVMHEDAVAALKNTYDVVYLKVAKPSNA

In turn, control chimeric peptide NA-1 came in with a Kd of 0.0753 µM.
